From patent US20160031958A1 (OREGON HEALTH AND SCIENCE UNIVERSITY, published 2016)
Changes are numbered by the printed parent chain. Numbers in names are those of the source. One block for each binder: values may come before it.

Assays:
[1] = molecular target: T1, HA-REST E1009A/S1013A/S1024A/S1027A/S1030A (human, UniProt Q13127 1-1097); experiment: GST pull-down on glutathione agarose from co-transfected HEK293T cells, Western blot
T1 construct: mature; Expressed in HEK293T cells and tested in cell extracts; also called E1009A/S1013/24/27/30A; REST degron mutant; not shown: HA tag
T1 sequence (looked up): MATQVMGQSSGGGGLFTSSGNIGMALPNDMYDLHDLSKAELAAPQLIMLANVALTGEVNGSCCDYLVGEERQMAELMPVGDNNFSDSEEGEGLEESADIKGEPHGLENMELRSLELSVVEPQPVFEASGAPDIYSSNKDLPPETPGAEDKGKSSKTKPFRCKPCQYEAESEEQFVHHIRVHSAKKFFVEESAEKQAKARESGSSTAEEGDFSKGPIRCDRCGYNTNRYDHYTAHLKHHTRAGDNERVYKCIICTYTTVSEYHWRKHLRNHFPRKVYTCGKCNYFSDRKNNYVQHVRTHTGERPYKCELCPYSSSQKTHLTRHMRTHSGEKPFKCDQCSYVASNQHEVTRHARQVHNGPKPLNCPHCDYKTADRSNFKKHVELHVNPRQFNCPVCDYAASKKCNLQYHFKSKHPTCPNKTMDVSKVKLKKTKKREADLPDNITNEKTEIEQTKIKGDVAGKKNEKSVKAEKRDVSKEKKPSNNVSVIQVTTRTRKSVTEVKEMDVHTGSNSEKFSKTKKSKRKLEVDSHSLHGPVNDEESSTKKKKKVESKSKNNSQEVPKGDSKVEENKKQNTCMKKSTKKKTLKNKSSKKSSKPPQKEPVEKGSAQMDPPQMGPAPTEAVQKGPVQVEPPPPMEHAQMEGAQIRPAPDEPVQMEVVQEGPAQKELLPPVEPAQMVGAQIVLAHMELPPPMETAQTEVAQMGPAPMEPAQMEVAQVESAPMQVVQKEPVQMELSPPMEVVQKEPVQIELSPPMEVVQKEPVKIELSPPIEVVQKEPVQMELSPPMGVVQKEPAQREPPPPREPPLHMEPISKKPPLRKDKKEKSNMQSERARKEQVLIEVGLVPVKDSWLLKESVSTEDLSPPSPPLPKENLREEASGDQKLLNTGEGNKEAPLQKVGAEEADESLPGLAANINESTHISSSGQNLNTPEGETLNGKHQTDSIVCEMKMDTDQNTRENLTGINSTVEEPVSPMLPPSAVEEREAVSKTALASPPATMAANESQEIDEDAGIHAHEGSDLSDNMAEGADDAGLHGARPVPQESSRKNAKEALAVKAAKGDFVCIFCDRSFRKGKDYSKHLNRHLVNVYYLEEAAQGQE
Method: HA-REST cDNAs were transfected into HEK293T cells along with GST-βTrCP, and FLAG-Dominant Negative Cull to stabilize REST. Cell extracts were collected on glutathione agarose and probed with anti-HA or anti-GST antibodies.
Whole cell lysates were prepared and immunoprecipitated following the procedures in Ballas N et al, 2001 supra and Nesti E et al, Mol Biol Cell 15, 4073-4088 (2004); incorporated by reference herein. Western blots were performed by standard procedures using antibodies described below and analyzed using anti IgG conjugated to infrared dyes (ThermoFisher) on an Odyssey® infrared fluorescence imager (LiCor). For detecting phosphorylated REST at S861/S864, cell extracts were prepared lacking phosphatase inhibitors. For phosphatase treatment, 75 μg of total protein was treated with 600 U lambda phosphatase (New England Biolabs) or with buffer alone at 30° C. for 1 h, according to the manufacturer's protocol. Thirty-five μg of treated protein were resolved by SDS-PAGE and Western blotted with the non-phospho-depleted anti REST phospho antibody (rabbit #101) at 1:500 in 3% BSA/1×TBS-0.5% Tween-20® overnight at 4° C., followed by anti-rabbit IgG-IR680 conjugated secondary antibody (Thermo Fisher) at 1:15000 in 5% milk/TBS-Tween for 1 hour at room temp. Infrared fluorescence was detected on the Odyssey® imager (LiCor) in the 700 nm channel. […]

[2] = molecular target: T2, Pin1 (peptidyl-prolyl cis/trans isomerase), human (human, UniProt Q13526 1-163); experiment: co-immunoprecipitation from transfected HEK293T cells, Western blot
T2 construct: also called Human Pin1
T2 sequence (Q13526 whole entry): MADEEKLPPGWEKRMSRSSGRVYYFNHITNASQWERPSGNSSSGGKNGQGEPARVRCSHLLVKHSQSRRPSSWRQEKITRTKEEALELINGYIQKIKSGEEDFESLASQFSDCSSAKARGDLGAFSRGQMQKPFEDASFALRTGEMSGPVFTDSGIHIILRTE
Method: FIG. 4A is an image of a Western blot of co-immunoprecipitation analysis showing Pin1 is present in REST (810-910) immunoprecipitates in a phospho-dependent manner. HEK293T cells were transfected with Pin1 cDNA and either WT or mutant (S861A/S864A) FLAG-REST (810-910) or FLAG-control (595-694) peptide cDNAs (FIG. 3). After 48 hours, the cells were extracted and immunoprecipitated. Western blots were probed with the indicated antibodies.
To confirm this, HEK cells were transfected with FLAG-Pin1 and cDNAs encoding the 100 amino acid peptides described above containing an S861/S864 or an S861A/S864A sites. Pin1 was present in immunocomplexes of unmutated REST (810-910) reporter peptides, but not phosphorylation-resistant mutant S861A/S864A peptides (FIG. 4A). […]
Whole cell lysates were prepared and immunoprecipitated following the procedures in Ballas N et al, 2001 supra and Nesti E et al, Mol Biol Cell 15, 4073-4088 (2004); incorporated by reference herein. Western blots were performed by standard procedures using antibodies described below and analyzed using anti IgG conjugated to infrared dyes (ThermoFisher) on an Odyssey® infrared fluorescence imager (LiCor). […]

HA-REST S861A/S864A = molecular target: T3, HA-REST S861A/S864A (human, UniProt Q13127 1-1097); experiment: FLAG immunoprecipitation from transfected HEK293T cells, Western blot
T3 construct: mature; Expressed in HEK293T cells and tested in cell extracts; also called mutant S861A/S864A REST; not shown: HA tag
T3 sequence (looked up): T1 sequence (looked up) with S861A, S864A, A1009E, A1013S, A1024S, A1027S, A1030S
Description: CTDSP1 was first identified as a nuclear phosphatase targeting the C-terminus of RNA polymerase II (R HR et al, BMB Rep 47, 192-196 (2014); Feng Y et al, Biochem Biophys Res Commun 397, 355-360 (2010); and Zhang Y et al, Mol Cell 24, 759-770 (2006); all of which are incorporated by reference herein). Subsequently it was implicated in REST repression of neuronal gene expression in P19 embryonal carcinoma cells that have the capacity to differentiate into neurons (Visvanathan J et al, Genes Dev 21, 744-749 (2007); incorporated by reference herein). […] REST was detected in FLAG-immunocomplexes only when the site was unmutated or double-substituted with glutamate, a phosphorylation-mimic.
Whole cell lysates were prepared and immunoprecipitated following the procedures in Ballas N et al, 2001 supra and Nesti E et al, Mol Biol Cell 15, 4073-4088 (2004); incorporated by reference herein. Western blots were performed by standard procedures using antibodies described below and analyzed using anti IgG conjugated to infrared dyes (ThermoFisher) on an Odyssey® infrared fluorescence imager (LiCor). […] Infrared fluorescence was detected on the Odyssey® imager (LiCor) in the 700 nm channel. […]

binding result [1]: no binding
B1: GST-βTrCP (other, UniProt Q9Y297 1-605, looked up)
chain: MDPAEAVLQEKALKFMCSMPRSLWLGCSSLADSMPSLRCLYNPGTGALTAFQNSSEREDCNNGEPPRKIIPEKNSLRQTYNSCARLCLNQETVCLASTAMKTENCVAKTKLANGTSSMIVPKQRKLSASYEKEKELCVKYFEQWSESDQVEFVEHLISQMCHYQHGHINSYLKPMLQRDFITALPARGLDHIAENILSYLDAKSLCAAELVCKEWYRVTSDGMLWKKLIERMVRTDSLWRGLAERRGWGQYLFKNKPPDGNAPPNSFYRALYPKIIQDIETIESNWRCGRHSLQRIHCRSETSKGVYCLQYDDQKIVSGLRDNTIKIWDKNTLECKRILTGHTGSVLCLQYDERVIITGSSDSTVRVWDVNTGEMLNTLIHHCEAVLHLRFNNGMMVTCSKDRSIAVWDMASPTDITLRRVLVGHRAAVNVVDFDDKYIVSASGDRTIKVWNTSTCEFVRTLNGHKRGIACLQYRDRLVVSGSSDNTIRLWDIECGACLRVLEGHEELVRCIRFDNKRIVSGAYDGKIKVWDLVAALDPRAPAGTLCLRTLVEHSGRVFRLQFDEFQIVSSSHDDTILIWDFLNDPAAQAEPPRSPSRTYTYISR
notes: also called βTrCP-GST fusion; bTrCP; not shown: GST

binding result [2]: no binding
B2: FLAG-REST (810-910)-GFP reporter peptide S861A/S864A (peptide)
chain: ISKKPPLRKDKKEKSNMQSERARKEQVLIEVGLVPVKDSWLLKESVSTEDLAPPAPPLPKENLREEASGDQKLLNTGEGNKEAPLQKVGAEEADESLPGLA
notes: also called mutant (S861A/S864A) FLAG-REST (810-910); phosphorylation-resistant mutant S861A/S864A peptide; not shown: N-terminal FLAG tag with linker; C-terminal eGFP tag (pEGFP-N1)

binding result (HA-REST S861A/S864A): no binding
B3: FLAG-CTDSP1 (enzyme, not shown: small tags and cut ends)
chain: MDSSAVITQISKEEARGPLRGKGDQKSAASQKPRSRGILHSLFCCVCRDDGEALPAHSGAPLLVEENGAIPKQTPVQYLLPEAKAQDSDKICVVIDLDETLVHSSFKPVNNADFIIPVEIDGVVHQVYVLKRPHVDEFLQRMGELFECVLFTASLAKYADPVADLLDKWGAFRARLFRESCVFHRGNYVKDLSRLGRDLRRVLILDNSPASYVFHPDNAVPVASWFDNMSDTELHDLLPFFEQLSRVDDVYSVLRQPRPGS
notes: also called C-terminal domain small phosphatase
